From the supplement of paper PMC12042874
± gives the uncertainty stated by the source.

Test: amyloid nucleation score (Sup35N fusion, yeast selection) (log enrichment); library NNK3; higher = more nucleation; inactive = no reads after selection
How it was run: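 Peptides of 20 random codons, each fused to Sup35N, were expressed in psi-negative yeast. Cells were induced with 100 μM copper sulfate for 24 hours and grown 7 days at 30°C on medium lacking adenine and uracil, and plasmid inserts before and after selection were Illumina-sequenced. Nucleation scores are DiMSum log enrichments of output over input reads, centred on the mode score of non-aggregating sequences, and sequences under 100 input reads were excluded.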

| Substance | amyloid nucleation score |
| --- | --- |
| SRRKGQVVGCLQTMCCCKVE | inactive |
| SRRLVKESDDRGCCRGLFWD | inactive |
| SRSDKNHRNVANLNGVWCVT | inactive |
| SRSMDGSVCAFRMDMSSMD | inactive |
| SRVITDVHERVAVGGVVIWD | 0.003 ± 0.31 |
| SRVKDYCSFGLDFKCVCVFL | 2.06 ± 0.094 |
| SRVWMITRLFGTMA | inactive |
| SRYFYDADYLFGGHSVAGQI | inactive |
| SRYQMGYKCFMSWHHTGHFN | inactive |
| SRYSYVYTSESLYRASVSSV | inactive |
| SSAGYVVYIVMSRS | 2.65 ± 0.065 |
| SSCRDVWWKVVVVPTFTGGV | inactive |
| SSCRETTLEFAMGGTTVHLQ | inactive |
| SSDECV | inactive |
| SSDSYLVRESDKSSEWGTRN | inactive |
| SSFFMRIVCMFYLIRKVMKC | inactive |
| SSFYFCFMSCCYGLGFYLEI | inactive |
| SSGVEAGVSRMMLQ | inactive |
| SSIVEPQQLTGGPASGRFGE | inactive |
| SSLGNSLVMYVVCAWVN | 0.273 ± 0.37 |
| SSLGWFQVSHFRYWNRRCGL | inactive |
| SSLHARRYGLHLSLLSPARA | inactive |
| SSLLVRVRIYMGMMLLTIVR | inactive |
| SSLPMGFRSVI | inactive |
| SSLRLRDMSASENNRGSMPV | inactive |
| SSNLYMSSFWTSMMTWPTNY | inactive |

| Substance | amyloid nucleation score |
| --- | --- |
| SSNVPFVWCIPLMIAGIVGH | -0.348 ± 0.75 |
| SSPRGCKSELPSGLGTYCRV | inactive |
| SSPRYVCWNF | inactive |
| SSRRPWIIGSMST | inactive |
| SSRTCK | inactive |
| SSSAF | inactive |
| SSSSIVLDGLTFWLINTVTT | 0.598 ± 0.21 |
| SSSTVYISVLVINHIDGSIR | 2.42 ± 0.051 |
| SSSYFIALWYFRTTRLSGGL | inactive |
| SSTLHRQIRRGVTVNELLRG | inactive |
| SSTNPGIH | inactive |
| SSTSCTHGYVGMFGFPSVVS | inactive |
| SSVGTAFLYYRKYGICADG | inactive |
| SSVSSMRRSHYETMMGRTVG | inactive |
| SSWNTTYMESSVPVGYLFRI | inactive |
| SSWPTTGRWE | inactive |
| SSYLNSVNSCLNDNVSHCCS | -0.343 ± 0.68 |
| STLCSSCKGFDRMRYILVTR | 0.274 ± 0.38 |
| STLGTRSRDFLMIFSNRSTE | inactive |
| STMDRSVKVVGPSSRPEGSV | inactive |
| STPWHSRAISVALDRGDRWM | inactive |
| STRTWQRF | -0.014 ± 0.28 |
| STSYSSAL | inactive |
| STTLWAIALGLYNTVYSLAN | inactive |
| STWYSFDFRYFLDTIVCHMF | 1.68 ± 0.11 |
| SVAFSWGMWCDSLDYFGSVS | inactive |

| Substance | amyloid nucleation score |
| --- | --- |
| SVAKNCWCPKCGMSSTFDSI | inactive |
| SVARWSENGSTKSQYSP | inactive |
| SVDDTLSVNGSSRSCGRGCR | -1.02 ± 1.5 |
| SVDSREMHSVCCKSLLFGFD | inactive |
| SVELNTKLVRYEVLSRMYRA | inactive |
| SVESECRDMFSFKGFCVCVK | inactive |
| SVFKIV | inactive |
| SVFSFCLNYSYNCIDRCKFN | inactive |
| SVGFRYHVLRKSKWCVYIVE | inactive |
| SVHWSINWTGLERVSRTQRL | 0.523 ± 0.24 |
| SVIMGLTGDPGVALYVVTIM | inactive |
| SVLCMGLHEIQYIRRFCRHW | inactive |
| SVLCWFSVR | inactive |
| SVLGVSTYSLCSSVNCIFRF | 2.74 ± 0.062 |
| SVLHVLYCVGSECVYVSSSR | inactive |
| SVLWLVCMDCHPQKSVSCD | 0.863 ± 0.25 |
| SVMYVQNFPYLLSYWRSFIG | inactive |
| SVNSVTWLFVRMQYFLFISC | inactive |
| SVNWWTVLCVHCPGYKNLLI | 0.465 ± 0.26 |
| SVRSGLARVSRTGMG | inactive |
| SVSLLAFRDFALPDHTKHMT | inactive |
| SVTSHDPMACHLLVCSV | inactive |
| SVTWSHFGNWVRGAGLVMHR | 0.259 ± 0.39 |
| SVVIYWIWNCL | 3.09 ± 0.068 |
| SVVMVRSVYIERSVEPPAPG | -0.607 ± 1.4 |
| SVVPQDDILLNCGLEQAILG | inactive |
